± gives the uncertainty stated by the source.
Test: self-splicing fitness, log relative to wild type (ln ratio); higher = more splicing; Tetrahymena group I intron in knt gene, E. coli kanamycin selection, DiMSum; sequences stand for … in CUCUCU…GGAGGGAAAAGUUAUCAGGCAUGCACCUGGUAGCUAGUCUUUAAACCAAUAGAUUGCAUCGGUUUAAAAGGCAAGACCGUCAAAUUGCGGGAAAGGGGUCAACAGCCGUUCAGUACCAAGUCUCAGGGGAAACUUUGAGAUGGCCUUGCAAAGGGUAUGGUAAUAAGCUGACGGACAUGGUCCUAACCACGCAGCCAAGUCCUAAGUCAACAGAUCUUCUGUUGAUAUGGAUGCAGUUCACAGACUAAAUGUCGGUCGGGGAAGAUGUAUUCUUCUCAUAAGAUAUAGUCGGACCUCUCCUUAAUGGGAGCUAGCGGAUGAAGUGAUGCAACACUGGAGCCGCUGGGAACUAAUUUGUAUGCGAAAGUAUAUUGAUUAGUUUUGGAGUACUCGUGGUCG
How it was run: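 A randomised library covering all eight P1ex-region intron nucleotides was built with the intron in the knt kanamycin-resistance gene on pET-22b(+) and held in E. coli BL21(DE3). Cells were grown overnight at 37°C or 30°C on LB agar, with or without 25 μg/mL kanamycin, plus 100 μg/mL carbenicillin, 50 μM IPTG and 0.2% rhamnose, and pooled colonies were amplicon-sequenced on an Illumina HiSeq 2500. DiMSum fitness is the error-weighted combination of wild-type-normalised replicate fold changes, kanamycin versus none.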

| Sequence | self-splicing fitness (ln) (30 °C) | self-splicing fitness (ln) (37 °C) |
| --- | --- | --- |
| GAUUAGCAAUAUUACGUCGA | -1.83 ± 0.12 | -0.819 ± 0.11 |
| GAUUAGCAAUAUUACGUGCG | -2.8 ± 0.16 | 0.0923 ± 0.12 |
| GAUUAGCAAUAUUACGUGCU | -2.46 ± 0.18 | -1.26 ± 0.14 |
| GCAAAGCAAUAUUACGAUAU | -1.41 ± 0.075 | 0.42 ± 0.082 |
| GCAAAGCAAUAUUACGAUUU | -0.938 ± 0.06 | -0.449 ± 0.082 |
| GCAAAGCAAUAUUACGCAAG | -3.95 ± 0.19 | -2.22 ± 0.14 |
| GCAAAGCAAUAUUACGCACC | -1.15 ± 0.17 | -1.45 ± 0.16 |
| GCAAAGCAAUAUUACGCCGA | -2.04 ± 0.31 | -1.82 ± 0.21 |
| GCAAAGCAAUAUUACGCGCU | -3.48 ± 0.23 | -2.01 ± 0.18 |
| GCAAAGCAAUAUUACGCGGA | -3.48 ± 0.27 | -1.94 ± 0.17 |
| GCAAAGCAAUAUUACGCGGU | -4.16 ± 0.22 | -2.67 ± 0.24 |
| GCAAAGCAAUAUUACGCUAA | -2.19 ± 0.14 | -1.29 ± 0.12 |
| GCAAAGCAAUAUUACGCUGA | -2.59 ± 0.12 | -2.04 ± 0.11 |
| GCAAAGCAAUAUUACGGACG | -1.4 ± 0.091 | 0.261 ± 0.14 |
| GCAAAGCAAUAUUACGGCAA | -0.673 ± 0.094 | -0.722 ± 0.091 |
| GCAAAGCAAUAUUACGGCAC | -0.648 ± 0.081 | -0.426 ± 0.09 |
| GCAAAGCAAUAUUACGGCAG | -3.61 ± 0.22 | -2.81 ± 0.31 |
| GCAAAGCAAUAUUACGGCCA | -2.11 ± 0.24 | -0.962 ± 0.19 |
| GCAAAGCAAUAUUACGGUAG | -2.68 ± 0.14 | -3.34 ± 0.23 |
| GCAAAGCAAUAUUACGUAAA | -0.824 ± 0.062 | -0.5 ± 0.085 |
| GCAAAGCAAUAUUACGUAAG | -1.92 ± 0.1 | -0.569 ± 0.11 |
| GCAAAGCAAUAUUACGUCCU | -0.435 ± 0.1 | 0.035 ± 0.12 |
| GCAAAGCAAUAUUACGUCUC | -1.02 ± 0.11 | -0.501 ± 0.12 |
| GCAAAGCAAUAUUACGUGGU | -3.38 ± 0.15 | -2.59 ± 0.15 |
| GCAAAGCAAUAUUACGUUCA | -0.597 ± 0.064 | -0.534 ± 0.077 |

| Sequence | self-splicing fitness (ln) (30 °C) | self-splicing fitness (ln) (37 °C) |
| --- | --- | --- |
| GCACAGCAAUAUUACGAAGC | -2.52 ± 0.23 | -0.749 ± 0.15 |
| GCACAGCAAUAUUACGAGAC | -2.51 ± 0.17 | -2.06 ± 0.18 |
| GCACAGCAAUAUUACGAGUA | -1.31 ± 0.084 | -0.881 ± 0.088 |
| GCACAGCAAUAUUACGAUAA | -1.31 ± 0.07 | -0.957 ± 0.096 |
| GCACAGCAAUAUUACGAUCC | -0.381 ± 0.11 | -0.0747 ± 0.16 |
| GCACAGCAAUAUUACGCAUG | -2.95 ± 0.19 | -0.809 ± 0.12 |
| GCACAGCAAUAUUACGCCGG | -1.25 ± 0.1 | -0.896 ± 0.16 |
| GCACAGCAAUAUUACGCGUA | -0.987 ± 0.094 | -0.173 ± 0.086 |
| GCACAGCAAUAUUACGCUAA | -1.6 ± 0.092 | -0.281 ± 0.089 |
| GCACAGCAAUAUUACGGAGU | -1.69 ± 0.05 | -0.838 ± 0.061 |
| GCACAGCAAUAUUACGGAUA | -2.49 ± 0.17 | -1.38 ± 0.12 |
| GCACAGCAAUAUUACGGCCC | -0.235 ± 0.1 | -0.615 ± 0.13 |
| GCACAGCAAUAUUACGGGCG | -1.4 ± 0.071 | 0.0832 ± 0.081 |
| GCACAGCAAUAUUACGGGGU | -2.83 ± 0.13 | -1.35 ± 0.11 |
| GCACAGCAAUAUUACGUACC | -1.47 ± 0.096 | -0.717 ± 0.13 |
| GCACAGCAAUAUUACGUACG | -0.945 ± 0.092 | -0.0901 ± 0.098 |
| GCACAGCAAUAUUACGUAGG | -0.466 ± 0.055 | -0.109 ± 0.069 |
| GCACAGCAAUAUUACGUAGU | -0.976 ± 0.057 | -0.516 ± 0.072 |
| GCACAGCAAUAUUACGUAUA | -0.999 ± 0.06 | -0.413 ± 0.07 |
| GCACAGCAAUAUUACGUAUG | -2.21 ± 0.073 | -1.52 ± 0.079 |
| GCACAGCAAUAUUACGUCAC | -3.68 ± 0.26 | -2.42 ± 0.32 |
| GCACAGCAAUAUUACGUCAU | -1.89 ± 0.071 | -0.731 ± 0.082 |
| GCACAGCAAUAUUACGUCCG | -0.402 ± 0.09 | -0.201 ± 0.11 |
| GCACAGCAAUAUUACGUCUU | -0.723 ± 0.053 | 0.267 ± 0.064 |
| GCACAGCAAUAUUACGUGAA | 0.0235 ± 0.053 | -0.102 ± 0.068 |

| Sequence | self-splicing fitness (ln) (30 °C) | self-splicing fitness (ln) (37 °C) |
| --- | --- | --- |
| GCACAGCAAUAUUACGUGAU | -0.331 ± 0.029 | 0.114 ± 0.044 |
| GCACAGCAAUAUUACGUGGC | -4.03 ± 0.18 | -2.74 ± 0.15 |
| GCAGAGCAAUAUUACGAACU | -0.968 ± 0.14 | -1.1 ± 0.19 |
| GCAGAGCAAUAUUACGAAUA | -3.67 ± 0.32 | -2.78 ± 0.26 |
| GCAGAGCAAUAUUACGAAUG | -2.71 ± 0.35 | – |
| GCAGAGCAAUAUUACGACAC | -1.46 ± 0.2 | -0.344 ± 0.33 |
| GCAGAGCAAUAUUACGAGUU | -4.28 ± 0.16 | -1.82 ± 0.095 |
| GCAGAGCAAUAUUACGCCAG | -2.36 ± 0.48 | – |
| GCAGAGCAAUAUUACGCCCA | -1.07 ± 0.28 | -0.895 ± 0.46 |
| GCAGAGCAAUAUUACGCGAA | -4.38 ± 0.24 | -3.44 ± 0.21 |
| GCAGAGCAAUAUUACGCGUA | -2.94 ± 0.33 | -2.22 ± 0.25 |
| GCAGAGCAAUAUUACGCUCA | -1.66 ± 0.15 | -0.832 ± 0.15 |
| GCAGAGCAAUAUUACGCUUC | -3.9 ± 0.27 | -2.22 ± 0.2 |
| GCAGAGCAAUAUUACGGAAU | -3.4 ± 0.36 | -1.51 ± 0.34 |
| GCAGAGCAAUAUUACGGAUG | -2.76 ± 0.18 | -1.82 ± 0.22 |
| GCAGAGCAAUAUUACGGCCG | -3.3 ± 0.24 | -2.02 ± 0.27 |
| GCAGAGCAAUAUUACGGGAA | -2.68 ± 0.19 | -1.96 ± 0.18 |
| GCAGAGCAAUAUUACGGGCU | -1.78 ± 0.3 | -2.03 ± 0.39 |
| GCAGAGCAAUAUUACGGGGG | -3.1 ± 0.34 | -3.56 ± 0.39 |
| GCAGAGCAAUAUUACGGGUC | -3.78 ± 0.47 | -2.29 ± 0.24 |
| GCAGAGCAAUAUUACGGUAC | -2.65 ± 0.22 | -1.79 ± 0.45 |
| GCAGAGCAAUAUUACGGUCC | -2.22 ± 0.29 | -2.05 ± 0.4 |
| GCAGAGCAAUAUUACGUAAA | -2.76 ± 0.19 | -3.33 ± 0.42 |
| GCAGAGCAAUAUUACGUACC | -1.95 ± 0.17 | -0.941 ± 0.19 |
| GCAGAGCAAUAUUACGUAGU | -3.3 ± 0.28 | -3.09 ± 0.37 |

| Sequence | self-splicing fitness (ln) (30 °C) | self-splicing fitness (ln) (37 °C) |
| --- | --- | --- |
| GCAGAGCAAUAUUACGUCCC | – | -1.04 ± 0.34 |
| GCAGAGCAAUAUUACGUCGA | – | -1.58 ± 0.21 |
| GCAGAGCAAUAUUACGUGGC | – | -2.09 ± 0.32 |
| GCAGAGCAAUAUUACGUGGU | -3.94 ± 0.17 | -2.27 ± 0.18 |
| GCAGAGCAAUAUUACGUUAC | -2.97 ± 0.16 | -1.38 ± 0.17 |
| GCAUAGCAAUAUUACGAACA | -1.61 ± 0.13 | -1.34 ± 0.12 |
| GCAUAGCAAUAUUACGAGUG | -2.77 ± 0.14 | -1.76 ± 0.11 |
| GCAUAGCAAUAUUACGAUUU | -1.27 ± 0.092 | 0.225 ± 0.14 |
| GCAUAGCAAUAUUACGCACC | -1.28 ± 0.21 | – |
| GCAUAGCAAUAUUACGCCGG | -3 ± 0.28 | -1.01 ± 0.2 |
| GCAUAGCAAUAUUACGGAAC | -3.61 ± 0.29 | -3.46 ± 0.34 |
| GCAUAGCAAUAUUACGGAGC | -3.59 ± 0.25 | -2.73 ± 0.23 |
| GCAUAGCAAUAUUACGGCAU | -1.21 ± 0.096 | -1.19 ± 0.083 |
| GCAUAGCAAUAUUACGGCUU | -0.36 ± 0.11 | -0.322 ± 0.11 |
| GCAUAGCAAUAUUACGUACG | -1.42 ± 0.076 | -1.14 ± 0.09 |
| GCAUAGCAAUAUUACGUAGC | -4.39 ± 0.26 | -2.15 ± 0.16 |
| GCAUAGCAAUAUUACGUAGG | -2.32 ± 0.11 | -1.31 ± 0.13 |
| GCAUAGCAAUAUUACGUCCG | -1.44 ± 0.081 | -0.899 ± 0.13 |
| GCAUAGCAAUAUUACGUGUA | -2.43 ± 0.13 | -0.881 ± 0.084 |
| GCCAAGCAAUAUUACGAACG | -2.71 ± 0.11 | -1.46 ± 0.13 |
| GCCAAGCAAUAUUACGACAA | -3.73 ± 0.38 | -3.04 ± 0.26 |
| GCCAAGCAAUAUUACGACGA | -1.84 ± 0.15 | -1.02 ± 0.2 |

From the supplement of paper PMC7877785
